From article PMC8626509 come the findings set out here.

Values joined by “and” are separate entries in the source; they are usually repeats but may differ in a detail not shown here. Equal values may be shown once.

Series [1] deals with Asp89 (UniProt position 90, LAIRNDEELNK). Kind of series: NMR. The conditions noted are these: 303 K; 200 mM (adjusted with NaCl); 20 mM acetate pH 4.5, 5.1; 20 mM MES pH 5.6, 6.0, 6.5; 20 mM phosphate pH 6.8, 7.5, 7.9; 20 mM CHES pH 9.1; folded free H2A-H2B heterodimer (150 uM).
The target of series [2] is Glu55 (UniProt position 56, LAAVMEYLAAE). Put plainly: NMR. The conditions noted are these: 303 K, 200 mM (adjusted with NaCl).
For series [3], the target named is Glu60 (UniProt position 61, EYLAAEVLELA). Kind of series: NMR. The conditions noted are these: 303 K; 200 mM (adjusted with NaCl); 20 mM sodium acetate (pH 4.4-5.1), 20 mM MES (pH 5.4-6.5), 20 mM sodium phosphate (pH 6.8-7.9), 20 mM CHES (pH 9.1); folded free H2A-H2B heterodimer.
In series [4] the target is Glu63 (UniProt position 64, AAEVLELAGNA). Kind of series: NMR. The conditions noted are these: 303 K; 200 mM (adjusted with NaCl); 20 mM sodium acetate (pH 4.4-5.1), 20 mM MES (pH 5.4-6.5), 20 mM sodium phosphate (pH 6.8-7.9), 20 mM CHES (pH 9.1); folded free H2A-H2B heterodimer.
Series [5] has as its target Glu90 (UniProt position 91, AIRNDEELNKL). Kind of series: NMR. The conditions noted are these: 303 K; 200 mM (adjusted with NaCl); 20 mM sodium acetate (pH 4.4-5.1), 20 mM MES (pH 5.4-6.5), 20 mM sodium phosphate (pH 6.8-7.9), 20 mM CHES (pH 9.1); folded free H2A-H2B heterodimer.
Series [6] has as its target Glu91 (UniProt position 92, IRNDEELNKLL). Put plainly: NMR. The note with it: 303 K, 200 mM (adjusted with NaCl).
Series [7] addresses His106 (UniProt position 107, GELAKHAVSEG). Kind of series: NMR. The note with it: 303 K; 200 mM (adjusted with NaCl); 20 mM acetate pH 4.4, 5.0; 20 mM MES pH 5.4, 5.8, 6.2; 20 mM phosphate pH 6.8, 7.1, 7.5; folded free H2A-H2B heterodimer (150 uM).
Series [8] deals with His79 (UniProt position 80, ASRLAHYNKRS). Kind of series: NMR. The note with it: 303 K; 200 mM (adjusted with NaCl); 20 mM acetate pH 4.4, 5.0; 20 mM MES pH 5.4, 5.8, 6.2; 20 mM phosphate pH 6.8, 7.1, 7.5; folded free H2A-H2B heterodimer (150 uM).
Series [9] relates to His46.
Setting [10] is: 20 mM sodium acetate (pH 4.4-5.1), 20 mM MES (pH 5.4-6.5), 20 mM sodium phosphate (pH 6.8-7.9), 20 mM CHES (pH 9.1), folded free H2A-H2B heterodimer.

One may read the pKa as the pH at which an ionisable group is half protonated. A lower pKa goes with a stronger acid or weaker base. Regarding “Histone H2A (in the free H2A-H2B heterodimer) (Drosophila melanogaster)”, the pKa in series [1] was 5.51 ± 0.11 [4.37–6.07] and 5.02 ± 0.28 [4.61–5.61] and 5.3; in series [2] (20 mM acetate pH 4.5, 5.1, 20 mM MES pH 5.6, 6.0, 6.5, 20 mM phosphate pH 6.8, 7.5, 7.9, 20 mM CHES pH 9.1, folded free H2A-H2B heterodimer (150 uM)), 4.32 ± 0.08 [4.08–4.78]; in series [2] (setting [10]), less than 5; in series [3], less than 5; in series [4], less than 5; in [5] it was less than 5. The pKa was 4.36 ± 0.06 [3.89–4.79] in series [6] (20 mM acetate pH 4.4, 5.0, 20 mM MES pH 5.4, 5.8, 6.2, 20 mM phosphate pH 6.8, 7.1, 7.5, folded free H2A-H2B heterodimer (150 uM)) and less than 5 in series [6] (setting [10]).

On to “Histone H2B (in the free H2A-H2B heterodimer) (Drosophila melanogaster)”, for which the pKa in [7] was 6.52 ± 0.05 [6.23–6.93]; in [8], 6.7; in [9], 5.86 ± 0.03 [5.66–6.06] and 5.64 ± 0.02 [5.54–5.74] and 5.75 ± 0.03 [5.52–5.92].
